Source: article PMC10352329
Blank lines part the entries; values can stand above or below the substance they belong to.

Key:
[1] = biological target: human p300BRP (residues 1048–1282), wild type (human) (UniProt Q09472); assay: MST; p300BRP fluorescently labeled (His tag Labeling Kit), 2-fold serial dilutions of 180-bp nucleosome; 10 mM HEPES-NaOH pH 7.4, 150 mM NaCl, 0.05% Tween-20; 25 °C; Hill equation, half-saturation concentration (K1/2)
[2] = biological target: human p300BRP (residues 1048–1282), 4A-substituted mutant (R1133A, K1134A, R1137A, K1140A) (human) (UniProt Q09472); assay: as above
[3] = biological target: human p300BRP (residues 1048–1282), wild type (human) (UniProt Q09472); assay: MST; as a2, but p300BRP incubated beforehand with 10 μM CBP30 (inhibitor of the bromodomain pocket) for at least 20 min
[4] = biological target: human p300BRP (residues 1048–1282), 4A-substituted mutant (R1133A, K1134A, R1137A, K1140A) (human) (UniProt Q09472); assay: as above
[5] = tested on: p300 BRP 4A (Homo sapiens); assay: MST; details: human octamer H2A type 1-B/E, H2B type 1-J, MST and cryo-EM sample buffers not in the material, MST 10 µM CBP30 where stated
[6] = tested on: p300 BRP wild-type (Homo sapiens); assay: MST; details: human octamer H2A type 1-B/E, H2B type 1-J, MST and cryo-EM sample buffers not in the material, MST 10 µM CBP30 where stated
[7] = biological target: Histone H4 K12ac/K16ac (Homo sapiens) (UniProt P62805); details: cited from earlier work
[8] = biological target: Histone H4 K8ac/K12ac (Homo sapiens) (UniProt P62805); details: cited from earlier work
[9] = no CBP30, H3.1, H4 with K12ac/K16ac

Sequence of human p300BRP (residues 1048–1282), wild type (human) (Q09472 1048-1282): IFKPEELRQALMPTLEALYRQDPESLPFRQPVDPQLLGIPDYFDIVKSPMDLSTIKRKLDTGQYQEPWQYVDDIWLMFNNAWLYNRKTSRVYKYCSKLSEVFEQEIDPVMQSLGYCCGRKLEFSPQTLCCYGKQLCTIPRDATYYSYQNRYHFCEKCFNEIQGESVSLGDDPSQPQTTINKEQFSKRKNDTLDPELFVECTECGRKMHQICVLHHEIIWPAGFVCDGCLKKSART
Sequence of human p300BRP (residues 1048–1282), 4A-substituted mutant (R1133A, K1134A, R1137A, K1140A) (human) (Q09472 1048-1282 R1133A/K1134A/R1137A/K1140A): as the sequence (Q09472 1048-1282) above, with R86A, K87A, R90A, K93A counted along it

K1/2 (half-saturation concentration) [1]: 0.35 nM | K1/2 (half-saturation concentration) [2]: 1.8 nM | K1/2 (half-saturation concentration) after incubation with CBP30 [3]: 1.2 nM | K1/2 (half-saturation concentration) after incubation with CBP30 [4]: 3.5 nM
Substance: 180-bp nucleosome having H4K12ac/K16ac (H4acNuc) (from UniProt P04908 1-130; P68431 1-136; P62805 1-103) (complex)

K1/2 (half-saturation concentration) [1]: 2.2 nM
Substance: 180-bp unmodified nucleosome (from UniProt P04908 1-130; P68431 1-136; P62805 1-103) (complex)

Substance: H4acNuc (180-bp, H4K12ac/K16ac)
K half ([5]; H3.1, H4 with K12ac/K16ac): 3.5 nM | K half [5, 9]: 1.8 nM | K half ([6]; H3.1, H4 with K12ac/K16ac): 1.2 nM | K half [6, 9]: 0.35 nM

Substance: p300/CBP bromodomain bromodomain (from UniProt Q09472)
Kd [7]: 25 µM | Kd [8]: 90 µM

Substance: unmodified 180-bp nucleosome
K half ([5]; no CBP30, H3.1, H4, unmodified): 7.3 nM | K half ([6]; no CBP30, H3.1, H4, unmodified): 2.2 nM
